Abundance fitness data for 167 variants are collected here from the Human Domainome abundance scans (Beltran et al. 2025).

± gives the uncertainty stated by the source.

B1: Homeobox protein cut-like 2, residues 895 to 963; numbered along this chain, O14529 (parent)
chain: EVDTLELTRQVKEKLAKNGICQRIFGEKVLGLSQGSVSDMLSRPKPWSKLTQKGREPFIRMQLWLSDQL

The variants in this data set derive from B1. The data set can be described thus: abundance fitness (aPCA) (normalised: wild type 0, dead -1); higher = more abundant; growth selection in yeast, the domain comes from the species named. The settings on record: Homo sapiens.
On to V29E, for which the abundance fitness is -0.535 ± 0.055.

In the case of V2F, the abundance fitness was -0.024 ± 0.048.

In the case of V2G, the abundance fitness is -0.001 ± 0.05.

For the variant V2P, the abundance fitness was -0.244 ± 0.056.

As for L5V, the abundance fitness stood at 0.015 ± 0.026.

As to E13H, the abundance fitness is -0.155 ± 0.08.

For the variant E13M, the abundance fitness is -0.008 ± 0.031.

As for S38Y, the abundance fitness is -0.008 ± 0.32.

For S38P, the abundance fitness is -0.209 ± 0.026.

In the case of V37N, the abundance fitness is -0.435 ± 0.1.

For E1W, the abundance fitness was -0.239 ± 0.088.

For the variant E1A, the abundance fitness is -0.122 ± 0.054.

With K28V, the abundance fitness is -0.184 ± 0.035.

For K28Y, the abundance fitness is -0.296 ± 0.047.

Turning to V11N, the abundance fitness was -0.153 ± 0.083.

As for V11C, the abundance fitness was -0.465 ± 0.083.

For V11R, the abundance fitness is -0.125 ± 0.029.

Q62T: the abundance fitness is -0.308 ± 0.038.

Consider Q62D, for which the abundance fitness was -0.654 ± 0.16.

For the variant Q62V, the abundance fitness is -0.367 ± 0.046.

With Q34S, the abundance fitness was -0.028 ± 0.031.

As for N18A, the abundance fitness is -0.119 ± 0.044.

Consider N18L, for which the abundance fitness was 0.115 ± 0.027.

For N18I, the abundance fitness is -0.101 ± 0.049.

As to N18E, the abundance fitness came to 0.045 ± 0.063.

For R23H, the abundance fitness was -0.094 ± 0.096.

In the case of R23D, the abundance fitness is -0.042 ± 0.15.

On to R23S, for which the abundance fitness was -0.101 ± 0.035.

In the case of R23M, the abundance fitness was -0.207 ± 0.034.

F58K: the abundance fitness was -1.11 ± 0.18.

As for F58A, the abundance fitness was -0.917 ± 0.06.

As to P44H, the abundance fitness is -0.241 ± 0.05.

Regarding P44D, the abundance fitness was -0.429 ± 0.099.

As for R9F, the abundance fitness was -0.181 ± 0.046.

On to R9W, for which the abundance fitness is -0.385 ± 0.03.

In the case of R9Y, the abundance fitness is -0.261 ± 0.059.

In the case of S42T, the abundance fitness was -0.169 ± 0.089.

Turning to S42K, the abundance fitness is 0.009 ± 0.044.

Consider I59W, for which the abundance fitness was -0.299 ± 0.072.

Turning to I59G, the abundance fitness was -0.315 ± 0.064.

In the case of I59M, the abundance fitness is -0.046 ± 0.041.

For D3N, the abundance fitness was -0.001 ± 0.056.

With D3G, the abundance fitness is -0.253 ± 0.033.

On to D3E, for which the abundance fitness is -0.277 ± 0.041.

In the case of K45M, the abundance fitness was -0.053 ± 0.026.

On to K45W, for which the abundance fitness is -0.313 ± 0.24.

In the case of K45R, the abundance fitness was 0.128 ± 0.14.

Consider K45Y, for which the abundance fitness was -0.265 ± 0.066.

Take G19Q: the abundance fitness is -0.242 ± 0.07.

As for Q52C, the abundance fitness was -0.038 ± 0.08.

For the variant Q52R, the abundance fitness worked out at 0.015 ± 0.032.

Q52G: the abundance fitness is -0.18 ± 0.05.

Take L50Y: the abundance fitness is -0.191 ± 0.066.

L50S: the abundance fitness is -0.865 ± 0.052.

On to L50G, for which the abundance fitness was -0.652 ± 0.085.

As to L50V, the abundance fitness was -0.522 ± 0.045.

Consider A16I, for which the abundance fitness is -0.313 ± 0.079.

As to A16C, the abundance fitness was -0.106 ± 0.077.

Take S48E: the abundance fitness is -0.103 ± 0.055.

Turning to S48H, the abundance fitness is -0.011 ± 0.04.

Regarding S48W, the abundance fitness was -0.387 ± 0.079.

Take S48M: the abundance fitness was -0.323 ± 0.048.

For Q22R, the abundance fitness is -0.062 ± 0.044.

In the case of Q22H, the abundance fitness is -0.239 ± 0.12.

As for Q22W, the abundance fitness is -0.021 ± 0.042.

W64F: the abundance fitness was -0.222 ± 0.082.

K49N: the abundance fitness was -0.16 ± 0.051.

K49Y: the abundance fitness is -0.301 ± 0.047.

For the variant K17P, the abundance fitness is -0.411 ± 0.092.

On to K17V, for which the abundance fitness is -0.169 ± 0.027.

On to K17G, for which the abundance fitness was -0.234 ± 0.043.

Turning to D39S, the abundance fitness was -0.073 ± 0.057.

Regarding D39E, the abundance fitness amounted to 0.029 ± 0.31.

For the variant D39M, the abundance fitness was -0.178 ± 0.097.

As for D39P, the abundance fitness was -0.184 ± 0.068.

For R55I, the abundance fitness is -0.684 ± 0.066.

Turning to R55Y, the abundance fitness is -0.76 ± 0.087.

As to R55V, the abundance fitness was -0.487 ± 0.031.

As for R55H, the abundance fitness was -0.654 ± 0.078.

With R55K, the abundance fitness was 0.052 ± 0.047.

For the variant L41R, the abundance fitness is -0.226 ± 0.051.

On to L41V, for which the abundance fitness is -0.518 ± 0.092.

With I24F, the abundance fitness turned out to be 0.143 ± 0.056.

Turning to I24R, the abundance fitness was -0.093 ± 0.034.

Turning to L7Q, the abundance fitness was -0.124 ± 0.042.

As to L7K, the abundance fitness worked out at 0.032 ± 0.04.

As for L7P, the abundance fitness was -0.103 ± 0.036.

For the variant L7N, the abundance fitness was 0.034 ± 0.089.

On to L7C, for which the abundance fitness was -0.164 ± 0.051.

As for L7F, the abundance fitness was -0.141 ± 0.048.

Turning to L7I, the abundance fitness was -0.058 ± 0.067.

With T8D, the abundance fitness is -0.214 ± 0.073.

As to T8A, the abundance fitness is -0.064 ± 0.045.

For the variant T8F, the abundance fitness is -0.143 ± 0.04.

For the variant L30C, the abundance fitness is -0.234 ± 0.043.

Regarding G35K, the abundance fitness was 0.124 ± 0.043.

Take Q10M: the abundance fitness was 0.082 ± 0.033.

With Q10F, the abundance fitness was -0.244 ± 0.04.

Regarding Q10E, the abundance fitness is -0.214 ± 0.095.

With G54M, the abundance fitness was 0.004 ± 0.039.

Take F25L: the abundance fitness is -0.351 ± 0.033.

Take F25Y: the abundance fitness was -0.779 ± 0.1.

F25V: the abundance fitness is -0.646 ± 0.037.

Consider F25P, for which the abundance fitness was -1.05 ± 0.41.

In the case of F25K, the abundance fitness was -0.62 ± 0.054.

K14D: the abundance fitness is -0.55 ± 0.12.

As to K14R, the abundance fitness is -0.062 ± 0.067.

Consider R60F, for which the abundance fitness was -1.08 ± 0.14.

Turning to R60I, the abundance fitness is -0.653 ± 0.091.

Take L69T: the abundance fitness is -0.199 ± 0.059.

L69M: the abundance fitness is -0.007 ± 0.049.

Turning to L69H, the abundance fitness is -0.182 ± 0.17.

With P57V, the abundance fitness was -0.117 ± 0.074.

Regarding P57A, the abundance fitness was -0.016 ± 0.063.

Regarding T4Y, the abundance fitness is -0.468 ± 0.068.

In the case of G31V, the abundance fitness was -0.514 ± 0.052.

On to G31L, for which the abundance fitness is -0.314 ± 0.036.

Consider M61K, for which the abundance fitness is -1.05 ± 0.16.

Turning to C21W, the abundance fitness was -0.104 ± 0.035.

For the variant C21S, the abundance fitness is 0.082 ± 0.043.

Consider M40R, for which the abundance fitness was -0.145 ± 0.038.

As to M40L, the abundance fitness came out at 0.136 ± 0.036.

Take I20F: the abundance fitness is -0.058 ± 0.04.

I20H: the abundance fitness was -0.382 ± 0.052.

As to I20K, the abundance fitness was -0.32 ± 0.051.

For the variant I20M, the abundance fitness was -0.023 ± 0.037.

As for L15V, the abundance fitness was -0.154 ± 0.027.

With L15N, the abundance fitness is -0.184 ± 0.059.

Turning to S36E, the abundance fitness worked out at 0.152 ± 0.054.

On to S36V, for which the abundance fitness is 0.064 ± 0.035.

With L65D, the abundance fitness was -0.841 ± 0.27.

For L65C, the abundance fitness was -0.511 ± 0.1.

As for L65N, the abundance fitness was -0.973 ± 0.082.

For K12S, the abundance fitness is -0.387 ± 0.032.

For K12H, the abundance fitness is -0.354 ± 0.11.

Regarding K12A, the abundance fitness was -0.372 ± 0.058.

As for P46S, the abundance fitness was -0.093 ± 0.027.

For P46W, the abundance fitness stood at 0.044 ± 0.085.

For E56S, the abundance fitness is -0.203 ± 0.036.

For E56G, the abundance fitness is -0.245 ± 0.041.

For E56H, the abundance fitness is -0.446 ± 0.077.

E56C: the abundance fitness was -0.843 ± 0.069.

S66L: the abundance fitness was -0.104 ± 0.024.

Regarding S66C, the abundance fitness is -0.048 ± 0.15.

In the case of S66I, the abundance fitness was -0.039 ± 0.08.

S66M: the abundance fitness was -0.085 ± 0.032.

Turning to W47G, the abundance fitness is -1.01 ± 0.14.

As for W47Y, the abundance fitness was -0.554 ± 0.063.

As to W47T, the abundance fitness is -0.654 ± 0.062.

As for G26V, the abundance fitness is -0.263 ± 0.037.

With G26P, the abundance fitness is -0.219 ± 0.16.

With G26S, the abundance fitness was -0.035 ± 0.033.

As to R43A, the abundance fitness is -0.034 ± 0.029.

As to R43C, the abundance fitness is -0.14 ± 0.072.

Take R43I: the abundance fitness is -0.329 ± 0.066.

For the variant R43V, the abundance fitness was -0.23 ± 0.037.

For the variant T51Y, the abundance fitness was -0.011 ± 0.056.

For the variant T51H, the abundance fitness was -0.235 ± 0.048.

As to T51W, the abundance fitness was -0.033 ± 0.12.

As for T51Q, the abundance fitness is -0.247 ± 0.04.

For T51D, the abundance fitness came to 0.117 ± 0.062.

Turning to T51G, the abundance fitness is -0.145 ± 0.14.

Turning to D67G, the abundance fitness came out at 0.009 ± 0.14.

As for D67R, the abundance fitness is -0.008 ± 0.083.

For the variant D67M, the abundance fitness was -0.25 ± 0.04.

For the variant S33I, the abundance fitness is -0.088 ± 0.058.

In the case of S33Q, the abundance fitness is -0.027 ± 0.049.
